Target: T1, pentapeptide Gln-Pro-Gln-Gln-Pro
T1 chain: QPQQP

B1: FvePro4 (protein)
chain: ASRLSSRRWASSENMTKLDTTSRLNRLRGLMKERNVQIYIVPSEDSHSSEYIADCDARRAYISGFTGSAGCAVVTLESAALATDGRYFNQATSQLDSNWTLLKQGLQDVPTWQDWSAEQSSGGKNVGVDPTLISGSTAKNLAEKIRKNGGAELLPVDGNLVDLVWGDERPSRPSEQVIIQPDELAGESVLNKLTKVRQELEKKHSPGFLVSMLDEIAWLFNLRGNDIPYNPVFFAYATVTPDAAKLYIDEAKLDDKCRSHLTSNKVDIKPYETIFDDAQALHAAHAAKSKSGDKVPTGNFLISNKGSWALKRALGGDSSVDEIRSLIGDAKAIKTEAELKGMRDCHVRDGAALIQYFAWLEDQLVNKKATLDEVQAADKLEELRKVKKDFVGLSFPTISSTGANAAIIHYGPERGNCATIDPEAIYLCDSGAQYRDGTTDTTRTLHFGKPTEAEREAYTLVLKGHISLDQAIFPKGTTGFALDSLARQHLWKNGLDYRHGTGHGVGSFLNVHEGPIGIGTRVQYAEVALAPGNVLSNEPGYYEDGKYGIRIENMVLVKEVKTKHSFGDKPFLGFEYVTLVPYCRNLIDTTLLTSEEKEWLNTYNAKVLEKTQEYFEGDDVTLAWLKRETQHVE
For B1, the “pentapeptide hydrolysis (ninhydrin reaction, A570)” value was “all purified proteases are capable of hydrolyzing pentapeptide Gln-Pro-Gln-Gln-Pro”.

Reference: patent US20220136027
